Measured values reported in ChEMBL document CHEMBL1152703, “Design and synthesis of a beta-lactamase activated 5-fluorouracil prodrug” (Bioorg Med Chem Lett, 2009).

Substrate: O=C(Cc1cccs1)N[C@@H]1C(=O)N2C(C(=O)O)=C(Cn3c(=O)[nH]cc(F)c3=O)CS[C@H]12
Experiment: Activity at Enterobacter cloacae P99 beta-lactamase by Michaelis-Menten equation

B1: Beta-lactamase (Enterobacter cloacae), P05364 (protein)
chain: MMRKSLCCALLLGISCSALATPVSEKQLAEVVANTITPLMKAQSVPGMAVAVIYQGKPHYYTFGKADIAANKPVTPQTLFELGSISKTFTGVLGGDAIARGEISLDDAVTRYWPQLTGKQWQGIRMLDLATYTAGGLPLQVPDEVTDNASLLRFYQNWQPQWKPGTTRLYANASIGLFGALAVKPSGMPYEQAMTTRVLKPLKLDHTWINVPKAEEAHYAWGYRDGKAVRVSPGMLDAQAYGVKTNVQDMANWVMANMAPENVADASLKQGIALAQSRYWRIGSMYQGLGWEMLNWPVEANTVVEGSDSKVALAPLPVAEVNPPAPPVKASWVHKTGSTGGFGSYVAFIPEKQIGIVMLANTSYPNPARVEAAYHILEALQ
  Km: 95.4 µM
  Vmax: 3.21 µmol/min/mg
